One molecule from patent CN114685663A (UNIV SOUTHWEST, dated 2022) can be followed below.

The target in test [1] is 肺炎链球菌溶血素 (Pneumolysin O, PLY), recombinant rPLY (肺炎链球菌 (Streptococcus pneumoniae)).
For test [2], the target named is 李斯特菌溶血素 (Listeriolysin O, LLO), recombinant rLLO (单增李斯特菌 (Listeria monocytogenes)).
Test [3] concerns the target 猪溶素 (Suilysin, SLY), recombinant rSLY (猪链球菌 (Streptococcus suis)).
The next test concerns the target T1, rLLO D1-3 (单增李斯特菌 (Listeria monocytogenes)).
T1 construct: also called LLO D1-3结构域
T1 chain: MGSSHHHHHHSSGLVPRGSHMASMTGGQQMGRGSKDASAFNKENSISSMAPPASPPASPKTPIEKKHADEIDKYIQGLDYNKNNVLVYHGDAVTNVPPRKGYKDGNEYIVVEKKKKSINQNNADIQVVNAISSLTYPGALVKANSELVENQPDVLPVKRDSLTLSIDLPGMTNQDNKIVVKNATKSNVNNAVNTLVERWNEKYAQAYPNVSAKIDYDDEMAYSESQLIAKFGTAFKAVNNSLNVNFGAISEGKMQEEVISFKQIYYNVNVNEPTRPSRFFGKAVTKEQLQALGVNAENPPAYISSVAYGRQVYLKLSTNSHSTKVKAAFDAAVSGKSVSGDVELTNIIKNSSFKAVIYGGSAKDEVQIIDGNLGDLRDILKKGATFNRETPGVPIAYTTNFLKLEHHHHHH
The test can be described thus: Western blot. In general terms: In western blotting, separated proteins are transferred to a membrane and probed.

The target of the next test is T2, rSLY D4 (猪链球菌 (Streptococcus suis)).
T2 construct: also called SLY D4结构域
T2 chain: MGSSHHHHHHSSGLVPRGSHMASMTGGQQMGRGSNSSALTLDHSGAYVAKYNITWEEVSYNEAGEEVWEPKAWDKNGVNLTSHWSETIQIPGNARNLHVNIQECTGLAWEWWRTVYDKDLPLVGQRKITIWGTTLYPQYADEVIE
As to the kind of experiment: Western blot.

In another test the target is T3, rLLO D4 (单增李斯特菌 (Listeria monocytogenes)).
T3 construct: also called LLO D4结构域
As to the kind of experiment: Western blot.

By EC50 is commonly meant the concentration that produces a half-maximal response.

B1: 抗胆固醇依赖性细胞溶素的抗体 (antibody, V domains shown)
VH: QVQLQQSGPGLVKPSQTLSLTCAISGDSVSSNSVAWNWIRQSPSRGLEWLGRTYYRSKWYNDYAVSVKSRITINPDTSKNQFSLQLNSVTPEDTAVYYCVRVDNSGWGNWGQGTLVTVSS
VL: EIVMTQSPLSSPVTLGQPASISCRSSQSLVHRDGNTYLSWLRQRPGQPPRLLIYKISNRFSGVPDRFSGSGAGTDFTLKISRVEAEDVGIYYCMQATQFPTFGGGTKVEIKR
notes: also called 胆固醇依赖性细胞溶素抗体; 抗胆固醇依赖性细胞溶素抗体
As to B1, the results for the concentration for a half-maximal effect (EC50) in test [1], in test [2] and in test [3] were 49.9 µM, 44.9 µM and 0.00018 µM, respectively. In addition, the binding result with rLLO D1-3 is given as “binds”; in the test with rSLY D4, “no binding (tested: 抗体1:1000稀释)”; with rLLO D4 it was “no binding (tested: 抗体1:1000稀释)”.
